Target: the molecule itself
Assay: cryo-EM structure

B1: measles virus fusion glycoprotein (F) (natural protein)
chain: QIHWGNLSKIGVVGIGSASYKVMTRSSHQSLVIKLMPNITLLNNCTRVEIAEYRRLLRTVLEPIRDALNAMTQNIRPVQSVASSRRHKRFAGVVLAGAALGVATAAQITAGIALHQSMLNSQAIDNLRASLETTNQAIEAIRQAGQEMILAVQGVQDYINNELIPSMNQLSCDLIGQKLGLKLLRYYTEILSLFGPSLRDPISAEISIQALSYALGGDINKVLEKLGYSGGDLLGILESRGIKARITHVDTESYFIVLSIAYPTLSEIKGVIVHRLEGVSYNIGSQEWYTTVPKYVATQGYLISNFDESSCTFMPEGTVCSQNALYPMSPLLQECLRGSTKSCARTLVSGSFGNRFILSQGNLIANCASILCKCYTTGTIINQDPDKILTYIAADHCPVVEVNGVTIQVGSRRYPDAVYLHRIDLGPPISLERLDVGTNLGNAIAKLEDAKELLESSDQILRSMKGLSSTSIVYILIAVCLGGLIGIPALICCCRGRCNKKGEQVGMSRPGLKPDLTGTSKSYVRSL
notes: also called MeV F; pre-fusion F
- stoichiometry N: 3

From PMC5928126 (Nature Communications, 2018)
